According to paper PMC9482650, “Quantitative fragmentomics allow affinity mapping of interactomes” (Nature Communications, 2022):

T1: LNX2_2, Q8N448
T1 sequence (Q8N448 334-432, limits assumed, looked up): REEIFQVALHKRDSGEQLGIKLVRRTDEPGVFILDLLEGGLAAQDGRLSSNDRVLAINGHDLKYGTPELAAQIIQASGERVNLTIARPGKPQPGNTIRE

T2: MPP2, Q14168
T2 sequence (Q14168 180-250, limits assumed, looked up): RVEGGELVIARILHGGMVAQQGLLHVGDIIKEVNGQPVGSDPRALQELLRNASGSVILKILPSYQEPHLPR

T3: TX1BP3, O14907
T3 sequence (O14907 10-122, limits assumed, looked up): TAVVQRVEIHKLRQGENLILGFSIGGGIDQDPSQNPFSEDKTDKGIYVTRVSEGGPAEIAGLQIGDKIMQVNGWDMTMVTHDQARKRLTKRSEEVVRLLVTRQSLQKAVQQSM

T4: HTRA4, P83105
T4 sequence (P83105 378-476, limits assumed, looked up): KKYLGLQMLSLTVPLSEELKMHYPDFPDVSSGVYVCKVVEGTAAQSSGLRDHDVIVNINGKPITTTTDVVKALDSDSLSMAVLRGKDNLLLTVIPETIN

T5: RADIL, Q96JH8
T5 sequence (Q96JH8 971-1071, limits assumed, looked up): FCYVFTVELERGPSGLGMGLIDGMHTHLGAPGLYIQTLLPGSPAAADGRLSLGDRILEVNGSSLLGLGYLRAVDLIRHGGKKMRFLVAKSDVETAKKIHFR

T6: NHERF3_4, Q5T2W1
T6 sequence (Q5T2W1 373-468, limits assumed, looked up): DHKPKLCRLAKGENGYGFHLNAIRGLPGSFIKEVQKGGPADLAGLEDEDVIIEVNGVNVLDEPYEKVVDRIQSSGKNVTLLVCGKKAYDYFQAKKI

T7: MPDZ_10, O75970
T7 sequence (O75970 1624-1722, limits assumed, looked up): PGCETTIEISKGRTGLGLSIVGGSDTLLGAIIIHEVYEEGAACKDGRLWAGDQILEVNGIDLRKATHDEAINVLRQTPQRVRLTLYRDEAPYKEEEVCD

T8: DFNB31_1, Q9P202
T8 sequence (Q9P202 135-233, limits assumed, looked up): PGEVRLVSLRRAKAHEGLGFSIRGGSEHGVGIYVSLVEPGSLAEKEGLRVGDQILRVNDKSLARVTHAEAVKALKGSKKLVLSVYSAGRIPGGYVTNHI

T9: LIN7A, O14910
T9 sequence (O14910 103-200, limits assumed, looked up): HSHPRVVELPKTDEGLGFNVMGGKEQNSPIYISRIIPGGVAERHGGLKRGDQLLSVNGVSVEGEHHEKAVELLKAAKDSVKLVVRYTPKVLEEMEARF

T10: GRIP1_7, Q9Y3R0
T10 sequence (Q9Y3R0 999-1096, limits assumed, looked up): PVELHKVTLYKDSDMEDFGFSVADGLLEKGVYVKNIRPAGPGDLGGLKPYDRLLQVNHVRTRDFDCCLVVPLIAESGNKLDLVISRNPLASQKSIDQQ

T11: ARHGEF11, O15085
T11 sequence (O15085 42-136, limits assumed, looked up): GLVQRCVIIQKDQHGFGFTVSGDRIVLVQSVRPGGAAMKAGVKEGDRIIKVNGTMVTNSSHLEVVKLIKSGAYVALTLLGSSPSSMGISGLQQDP

T12: PCLO, Q9Y6V0
T12 sequence (Q9Y6V0 4491-4600, limits assumed, looked up): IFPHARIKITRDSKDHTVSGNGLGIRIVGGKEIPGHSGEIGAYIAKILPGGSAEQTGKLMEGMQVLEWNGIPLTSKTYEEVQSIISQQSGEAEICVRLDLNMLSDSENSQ


Key:
Experiment in all cases: holdup assay
Set-up in all cases: key: below the threshold = too weak to quantify, mostly under pKd 3.1 to 4
Settings in all cases: plain residues with an end cap or a label only (N-terminal biotin on a linker: ado-ado)
LNX2_2, Q8N448 = biological target: T1, LNX2_2, Q8N448
MPP2, Q14168 = biological target: T2, MPP2, Q14168
Inadl_9, Q8NI35 = biological target: Inadl_9, Q8NI35
TX1BP3, O14907 = biological target: T3, TX1BP3, O14907
MAGI3_2, Q5TCQ9 = biological target: MAGI3_2, Q5TCQ9
MAGI1_1, Q96QZ7 = biological target: MAGI1_1, Q96QZ7
TJP1_2, Q07157 = biological target: TJP1_2, Q07157
TJP2_1, Q9UDY2 = biological target: TJP2_1, Q9UDY2
HTRA4, P83105 = biological target: T4, HTRA4, P83105
Inadl_10, Q8NI35 = biological target: Inadl_10, Q8NI35
RADIL, Q96JH8 = biological target: T5, RADIL, Q96JH8
NHERF3_4, Q5T2W1 = biological target: T6, NHERF3_4, Q5T2W1
GOPC, Q9HD26 = biological target: GOPC, Q9HD26
MPDZ_10, O75970 = biological target: T7, MPDZ_10, O75970
DFNB31_1, Q9P202 = biological target: T8, DFNB31_1, Q9P202
Inadl_5, Q8NI35 = biological target: Inadl_5, Q8NI35
LIN7A, O14910 = biological target: T9, LIN7A, O14910
GRIP1_7, Q9Y3R0 = biological target: T10, GRIP1_7, Q9Y3R0
FRMPD2_2, Q68DX3 = biological target: FRMPD2_2, Q68DX3
ARHGEF11, O15085 = biological target: T11, ARHGEF11, O15085
MAGI1_2, Q96QZ7 = biological target: MAGI1_2, Q96QZ7
PCLO, Q9Y6V0 = biological target: T12, PCLO, Q9Y6V0
FRMPD2_1, Q68DX3 = biological target: FRMPD2_1, Q68DX3
IL16_3, Q14005 = biological target: IL16_3, Q14005
LNX1_3, Q8TBB1 = biological target: LNX1_3, Q8TBB1
Sequence of LNX1_3, Q8TBB1 (Q8TBB1 500-596): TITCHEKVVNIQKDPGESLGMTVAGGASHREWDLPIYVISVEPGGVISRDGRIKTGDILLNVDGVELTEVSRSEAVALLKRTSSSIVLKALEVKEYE

Sequence of MAGI3_2, Q5TCQ9 (Q5TCQ9 398-503): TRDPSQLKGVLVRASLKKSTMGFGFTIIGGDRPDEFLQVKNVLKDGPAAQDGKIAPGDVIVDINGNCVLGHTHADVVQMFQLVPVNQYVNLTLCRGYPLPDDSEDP
Sequence of Inadl_10, Q8NI35 (Q8NI35 1673-1763): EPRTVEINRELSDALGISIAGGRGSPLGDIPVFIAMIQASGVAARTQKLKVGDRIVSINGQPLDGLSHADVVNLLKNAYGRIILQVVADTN
Sequence of TJP1_2, Q07157 (Q07157 181-274): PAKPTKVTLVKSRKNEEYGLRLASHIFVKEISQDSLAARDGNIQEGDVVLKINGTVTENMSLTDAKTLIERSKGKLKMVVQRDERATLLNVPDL
Sequence of FRMPD2_2, Q68DX3 (Q68DX3 944-1038): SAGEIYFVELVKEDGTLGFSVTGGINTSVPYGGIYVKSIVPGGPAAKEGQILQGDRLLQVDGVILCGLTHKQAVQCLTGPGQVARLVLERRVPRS
Sequence of Inadl_5, Q8NI35 (Q8NI35 673-780): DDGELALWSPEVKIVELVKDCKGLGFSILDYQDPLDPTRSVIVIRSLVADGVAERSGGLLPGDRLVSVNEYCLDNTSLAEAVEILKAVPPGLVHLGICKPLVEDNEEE
Sequence of FRMPD2_1, Q68DX3 (Q68DX3 770-861): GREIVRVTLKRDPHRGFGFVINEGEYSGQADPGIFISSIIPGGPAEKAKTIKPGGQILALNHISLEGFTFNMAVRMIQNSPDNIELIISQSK
Sequence of IL16_3, Q14005 (Q14005 1107-1207): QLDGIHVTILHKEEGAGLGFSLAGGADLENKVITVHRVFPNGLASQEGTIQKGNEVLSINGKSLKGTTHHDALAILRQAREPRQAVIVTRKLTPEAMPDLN
Sequence of TJP2_1, Q9UDY2 (Q9UDY2 24-128): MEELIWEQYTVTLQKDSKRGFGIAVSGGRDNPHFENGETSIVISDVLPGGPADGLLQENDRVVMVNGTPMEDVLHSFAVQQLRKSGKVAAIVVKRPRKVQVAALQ
Sequence of Inadl_9, Q8NI35 (Q8NI35 1530-1615): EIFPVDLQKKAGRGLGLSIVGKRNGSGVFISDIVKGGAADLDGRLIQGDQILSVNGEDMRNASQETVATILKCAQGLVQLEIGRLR
Sequence of MAGI1_1, Q96QZ7 (Q96QZ7 1-106): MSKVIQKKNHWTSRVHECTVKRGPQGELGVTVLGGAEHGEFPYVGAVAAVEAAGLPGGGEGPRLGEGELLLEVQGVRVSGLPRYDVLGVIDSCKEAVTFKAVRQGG
Sequence of MAGI1_2, Q96QZ7 (Q96QZ7 456-580): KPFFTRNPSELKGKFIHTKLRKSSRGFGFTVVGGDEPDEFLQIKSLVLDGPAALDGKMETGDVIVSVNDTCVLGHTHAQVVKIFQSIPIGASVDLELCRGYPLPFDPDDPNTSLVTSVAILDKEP

Binder | pKd (LNX2_2, Q8N448) | pKd (MPP2, Q14168) | pKd (Inadl_9, Q8NI35) | pKd (TX1BP3, O14907) | pKd (MAGI3_2, Q5TCQ9) | pKd (MAGI1_1, Q96QZ7) | pKd (TJP1_2, Q07157) | pKd (TJP2_1, Q9UDY2) | pKd (HTRA4, P83105) | pKd (Inadl_10, Q8NI35) | pKd (RADIL, Q96JH8) | pKd (NHERF3_4, Q5T2W1) | pKd (GOPC, Q9HD26) | pKd (MPDZ_10, O75970) | pKd (DFNB31_1, Q9P202) | pKd (Inadl_5, Q8NI35) | pKd (LIN7A, O14910) | pKd (GRIP1_7, Q9Y3R0) | pKd (FRMPD2_2, Q68DX3) | pKd (ARHGEF11, O15085) | other results
EALLQMESVA [CAVIN3, Q969G5] | below the threshold | below the threshold | below the threshold | below the threshold | below the threshold | below the threshold | below the threshold | below the threshold | below the threshold | below the threshold | below the threshold | below the threshold | below the threshold | below the threshold | below the threshold | below the threshold | below the threshold | below the threshold | below the threshold | below the threshold | pKd (MAGI1_2, Q96QZ7): below the threshold; pKd (PCLO, Q9Y6V0): below the threshold; pKd (FRMPD2_1, Q68DX3): 3.62; pKd (IL16_3, Q14005): below the threshold; pKd (LNX1_3, Q8TBB1): below the threshold
PRAEAEDSFL [PDGFRB, P09619] | 3.54 | below the threshold | below the threshold | 4.34 | below the threshold | 3.58 | 3.58 | below the threshold | 3.98 | below the threshold | below the threshold | below the threshold | below the threshold | below the threshold | 3.62 | below the threshold | 3.56 | below the threshold | 3.52 | 3.78 | pKd (MAGI1_2, Q96QZ7): below the threshold; pKd (PCLO, Q9Y6V0): below the threshold; pKd (FRMPD2_1, Q68DX3): below the threshold; pKd (IL16_3, Q14005): 3.5; pKd (LNX1_3, Q8TBB1): below the threshold
VKPQVSESKL [ACOT8, O14734] | below the threshold | below the threshold | below the threshold | below the threshold | 3.59 | below the threshold | below the threshold | below the threshold | below the threshold | below the threshold | below the threshold | below the threshold | 3.51 | below the threshold | 4.29 | below the threshold | below the threshold | below the threshold | below the threshold | below the threshold | pKd (MAGI1_2, Q96QZ7): below the threshold; pKd (PCLO, Q9Y6V0): below the threshold; pKd (FRMPD2_1, Q68DX3): below the threshold; pKd (IL16_3, Q14005): below the threshold; pKd (LNX1_3, Q8TBB1): below the threshold

Now from value to binder, other results behind:

pKd (LNX2_2, Q8N448) | pKd (MPP2, Q14168) | pKd (Inadl_9, Q8NI35) | pKd (TX1BP3, O14907) | pKd (MAGI3_2, Q5TCQ9) | pKd (MAGI1_1, Q96QZ7) | pKd (TJP1_2, Q07157) | pKd (TJP2_1, Q9UDY2) | pKd (HTRA4, P83105) | pKd (Inadl_10, Q8NI35) | pKd (RADIL, Q96JH8) | pKd (NHERF3_4, Q5T2W1) | pKd (GOPC, Q9HD26) | pKd (MPDZ_10, O75970) | pKd (DFNB31_1, Q9P202) | pKd (Inadl_5, Q8NI35) | pKd (LIN7A, O14910) | pKd (GRIP1_7, Q9Y3R0) | pKd (FRMPD2_2, Q68DX3) | pKd (ARHGEF11, O15085) | Binder | other results
4.98 | below the threshold | below the threshold | 4.3 | 4.21 | below the threshold | below the threshold | 4.84 | 4.08 | below the threshold | 4.99 | below the threshold | 3.66 | below the threshold | below the threshold | 3.6 | below the threshold | below the threshold | below the threshold | 3.94 | FNSYSLTGYV [CLDN2, P57739] | pKd (MAGI1_2, Q96QZ7): below the threshold; pKd (PCLO, Q9Y6V0): below the threshold; pKd (FRMPD2_1, Q68DX3): 3.49; pKd (IL16_3, Q14005): below the threshold; pKd (LNX1_3, Q8TBB1): below the threshold
below the threshold | below the threshold | below the threshold | below the threshold | below the threshold | below the threshold | below the threshold | below the threshold | below the threshold | below the threshold | below the threshold | 4.74 | below the threshold | below the threshold | below the threshold | below the threshold | below the threshold | below the threshold | below the threshold | below the threshold | EKKTLIGIKL [GOT1L1, Q8NHS2] | pKd (MAGI1_2, Q96QZ7): below the threshold; pKd (PCLO, Q9Y6V0): below the threshold; pKd (FRMPD2_1, Q68DX3): 3.88; pKd (IL16_3, Q14005): below the threshold; pKd (LNX1_3, Q8TBB1): below the threshold
